Where a chain is given by its changes, count along the chain named.
T1: CCL23 (human, UniProt P55773 22-120)
T1 chain: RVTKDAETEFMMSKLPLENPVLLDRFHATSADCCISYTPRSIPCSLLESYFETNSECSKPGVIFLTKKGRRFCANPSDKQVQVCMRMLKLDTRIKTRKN

T2: CCL1 (human, UniProt P22362 24-96)
T2 chain: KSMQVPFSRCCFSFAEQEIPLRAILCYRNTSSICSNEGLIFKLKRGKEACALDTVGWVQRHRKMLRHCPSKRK

T3: CCL16 (human, UniProt O15467 24-120)
T3 chain: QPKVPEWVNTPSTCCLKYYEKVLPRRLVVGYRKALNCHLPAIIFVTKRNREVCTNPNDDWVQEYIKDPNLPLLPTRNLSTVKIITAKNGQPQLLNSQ

T4: CCL15 (human, UniProt Q16663 22-113)
T4 chain: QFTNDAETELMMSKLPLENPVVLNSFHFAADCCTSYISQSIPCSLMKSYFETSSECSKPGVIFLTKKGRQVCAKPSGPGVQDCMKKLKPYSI

B1: CCL18 (ligand)
chain: AQVGTNKELCCLVYTSWQIPQKFIVDYSETSPQCPKPGVILLTKRGRQICADPNKKWVQKYISDLKLNA
B2: C-terminally tagged P672 (P672_RHIPU), glycosylated (natural protein)
chain: ETGVCEVSEQEGVGEDNATEDEDYEDFFKPVTCYFANSTVGPLRPPNCTVVCTNNTAWWNDTKSDGGHCYSEYRPEKRTHSREIYNCTIGVCGNGTCIANHTYADCW
modifications: glycosylated
B3: N-terminally tagged P672 (P672_RHIPU), glycosylated (natural protein)
chain: VCEVSEQEGVGEDNATEDEDYEDFFKPVTCYFANSTVGPLRPPNCTVVCTNNTAWWNDTKSDGGHCYSEYRPEKRTHSREIYNCTIGVCGNGTCIANHTYADCW
modifications: N-glycosylated (six N-glycosylated residues identified by mass spectrometry, Asn-34 among them; marked in Figure 2A)
B4: CCL4L1 (ligand)
chain: APMGSDPPTACCFSYTARKLPRNFVVDYYETSSLCSQPAVVFQTKRGKQVCADPSESWVQEYVYDLELN
B5: CCL3L1 (ligand)
chain: APLAADTPTACCFSYTSRQIPQNFIADYFETSSQCSKPSVIFLTKRGRQVCADPSEEWVQKYVSDLELSA
B6: CCL8 (human chemokine panel) (ligand)
chain: QPDSVSIPITCCFNVINRKIPIQRLESYTRITNIQCPKEAVIFKTKRGKEVCADPKERWVRDSMKHLDQIFQNLKP
B7: CCL3 (ligand)
chain: SLAADTPTACCFSYTSRQIPQNFIADYFETSSQCSKPGVIFLTKRSRQVCADPSEEWVQKYVSDLELSA
B8: CCL4 (ligand)
chain: B4 chain with G47S
B9: CCL14 (ligand)
chain: TKTESSSRGPYHPSECCFTYTTYKIPRQRIMDYYETNSQCSKPGIVFITKRGHSVCTNPSDKWVQDYIKDMKEN

Key:
[1] = target: other, more extended hybrid molecules (P672_EVA1 hybrids); experiment: BLI; P672(1_66):EVA1(47_94)
[2] = target: other, more extended hybrid molecules (P672_EVA1 hybrids); experiment: BLI; P672(1_92):EVA1(74_94)
[3] = target: P672(1_44)-EVA1(29_94) hybrid evasin (Rhipicephalus pulchellus | …, UniProt L7MC74;P0C8E7, K92N); experiment: BLI
[4] = target: evasin 1 (EVA1_RHISA), C-terminally tagged (Rhipicephalus sanguineus, UniProt P0C8E7 21-114, K92N); experiment: BLI
[5] = target: B6; experiment: BLI
CCL3L1 = target: B5; experiment: BLI
CCL23 = target: T1, CCL23; experiment: BLI
CCL3 = target: B7; experiment: BLI
CCL18 = target: B1; experiment: BLI
CCL13 = CCL13 (human, UniProt Q99616 17-98); experiment: BLI
CCL13, sequence (Q99616 17-98): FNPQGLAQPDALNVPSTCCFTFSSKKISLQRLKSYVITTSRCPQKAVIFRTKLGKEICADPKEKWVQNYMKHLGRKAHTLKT

CCL1 = target: T2, CCL1; experiment: BLI
CCL14 = target: B9; experiment: BLI
CCL11 = CCL11 (human, UniProt P51671 24-97); experiment: BLI
CCL11, sequence (P51671 24-97): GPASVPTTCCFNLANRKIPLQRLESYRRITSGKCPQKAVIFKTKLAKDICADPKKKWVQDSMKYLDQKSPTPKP

CCL16 = target: T3, CCL16; experiment: BLI
CCL7 = CCL7 (human, UniProt P80098 24-99); experiment: BLI
CCL7, sequence (P80098 24-99): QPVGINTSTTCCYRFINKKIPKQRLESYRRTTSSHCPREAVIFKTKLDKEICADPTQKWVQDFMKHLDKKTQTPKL

CCL15 = target: T4, CCL15; experiment: BLI
CCL2 = CCL2 (human, UniProt P13500 24-99); experiment: BLI

Binder: B1
- Kd [1]: 3.69 nM
- Kd [2]: 9.75 nM
- Kd [3]: 6.45 nM
- Kd [4]: 2.02 nM

Binder: B2
- Kd [5]: 16.4 nM
- Kd (CCL3L1): 5.7 nM
- Kd (CCL23): 9.7 nM
- Kd (CCL3): 13 nM
- Kd (CCL18): 0.9 nM

Binder: B3
- Kd [5]: 8.51 nM
- Kd (CCL13): 7.6 nM
- Kd (CCL1): 11 nM
- Kd (CCL3L1): 1.63 nM
- Kd (CCL14): 5.5 nM
- Kd (CCL11): 2.29 nM
- Kd (CCL16): 9.6 nM
- Kd (CCL7): 18.6 nM
- Kd (CCL15): 31.5 nM
- Kd (CCL23): 4.56 nM
- Kd (CCL3): 0.954 nM
- Kd (CCL18): 1.62 nM
- Kd (CCL2): 21 nM

Binder: B4
- Kd [4]: 77.9 nM

Binder: B5
- Kd [4]: 22.4 nM

Binder: B6
- Kd [1]: 277 nM
- Kd [2]: 397 nM
- Kd [3]: 216 nM

Binder: B7
- Kd [4]: 7.3 nM

Binder: B8
- Kd [4]: 233 nM

Binder: B9
- Kd [4]: 108 nM

— PMC5912465 (2018)
